Columns and labels:
[1] = biological target: T1, recombinant biotinylated CD137 protein (Fc-fusion protein, R&D Systems 838-4B) (human, UniProt Q07011 24-186, biotinylated, sites not stated); experiment: ELISA, lysate on biotinylated CD137-Fc
T1 construct: Bought Fc fusion; also called CD137-Fc
Description: (§1) Streptavidin-coated Maxisorp plates (Nunc catalog 436110) were blocked for 1 h in Starting Block T20 (Pierce) and then coated with biotinylated CD137 (using same antigen as in panning) or negative controls (an unrelated Fc-fused recombinant protein and human serum albumin) for 1 h. Plates were rinsed with TBST and diluted lysate was applied to plates for 1 h. Following additional rinses, wells were treated with HRP-conjugated anti-Centyrin antibody (PAB25) for 1 h and then assayed with POD (Roche catalog 11582950001).

[2] = biological target: unrelated Fc-fused recombinant protein; experiment: ELISA, negative control Fc protein
human serum albumin = biological target: T2, human serum albumin (human, UniProt P02768 25-609); experiment: ELISA, negative control HSA
T2 construct: Negative control of the ELISA; also called HSA
T2 sequence (P02768 25-609 limits assumed): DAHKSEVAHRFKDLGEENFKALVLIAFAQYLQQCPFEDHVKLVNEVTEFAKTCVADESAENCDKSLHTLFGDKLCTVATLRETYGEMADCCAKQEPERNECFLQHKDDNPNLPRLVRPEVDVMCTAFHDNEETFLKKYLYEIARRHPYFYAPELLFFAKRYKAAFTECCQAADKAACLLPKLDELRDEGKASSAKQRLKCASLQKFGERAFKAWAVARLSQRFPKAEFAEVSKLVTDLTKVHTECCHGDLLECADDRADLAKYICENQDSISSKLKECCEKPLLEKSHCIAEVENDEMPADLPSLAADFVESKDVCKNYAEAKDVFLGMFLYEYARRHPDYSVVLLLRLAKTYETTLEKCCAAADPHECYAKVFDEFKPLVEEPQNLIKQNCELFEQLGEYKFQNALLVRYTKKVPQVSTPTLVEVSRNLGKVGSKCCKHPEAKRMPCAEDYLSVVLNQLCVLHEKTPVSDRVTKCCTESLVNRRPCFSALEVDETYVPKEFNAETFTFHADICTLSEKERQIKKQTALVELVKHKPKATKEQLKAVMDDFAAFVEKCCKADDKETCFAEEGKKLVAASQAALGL
Description: as §1

| Binder | ELISA CD137 (RLU) [1] [RLU] | ELISA Fc Control (RLU) [2] [RLU] | ELISA HSA (RLU) (human serum albumin) |
| --- | --- | --- | --- |
| ISOP193ER9P1G4 (designed binder, not shown: small tags and cut ends) LPAPKNLVVSRVTEDSARLSWTAPDAAFDSFDIYYFEHPVGGEAIVLTVPGSERSYDLTGLKPGTEYLVTIYGVKGGNFSFPLSAIFTT | 1.38e+07 | 1440 | 320 |
| ISOP193HR9P1E3 (designed binder, not shown: small tags and cut ends) LPAPKNLVVSRVTEDSARLSWTAPDAAFDSFEIYYFELRLGGEAIVLTVPGSERSYDLTGLKPGTEYLVTIYGVKGGAYSNPLSAIFTT | 1.78e+07 | 1120 | 640 |
| ISOP193HR9P1G5 (designed binder, not shown: small tags and cut ends) LPAPKNLVVSRVTEDSARLSWTAPDAAFDSFDIYYYELRLGGEAIVLTVPGSERSYDLTGLKPGTEYLVTIYGVKGCAASDPLSAIFTT | 1.51e+07 | 24200 | 3360 |
| ISOP193HR9P1E8 (designed binder, not shown: small tags and cut ends) LPAPKNLVVSRVTEDSARLSWTAPDAAFDSFDIYYYELRLGGEAIVLTVPGSERSYDLTGLKPGTEYLVTIYGVKGGDYSPPLSAIFTT | 1.63e+07 | 3120 | 1520 |
| ISOP193HR9P1F8 (designed binder, not shown: small tags and cut ends) LPAPKNLVVSRVTEDSARLSWTAPDAAFDSFDIYYYELRLGGEAIVLTVPGSERSYDLTGLKPGTEYLVTIYGVKVCYYSTPLSAIFTT | 1.61e+07 | 31300 | 6080 |
| ISOP193HR9P1G4 (designed binder, not shown: small tags and cut ends) LPAPKNLVVSRVTEDSARLSWTAPDAAFDSFEIYYFELRLGGEAIVLTVPGSERSYDLTGLKPGTEYLVTIYGVKGGDYSPPLSAIFTT | 1.72e+07 | 960 | 560 |
| ISOP193FR9P1G2 (designed binder, not shown: small tags and cut ends) LPAPKNLVVSRVTEDSARLSWTAPDAAFDSFTIYYFENENGGEAIVLTVPGSERSYDLTGLKPDTEYLVTIYGVKGGHWSRPLSAIFTT | 7.86e+06 | 2560 | 880 |
| ISOP193FR9P1G10 (designed binder, not shown: small tags and cut ends) LPAPKNLVVSRVTEDSARLSWTAPDAAFDSFTIYYFENENGGEAIVLTVPGSERSYDLTGLKPGTEYLVTIYGVKGGHWSRPLSAIFTT | 8.91e+06 | 2480 | 880 |

Second part, the binder after the results:

| ELISA CD137 (RLU) [1] [RLU] | ELISA Fc Control (RLU) [2] [RLU] | ELISA HSA (RLU) (human serum albumin) | Binder |
| --- | --- | --- | --- |
| 1.58e+07 | 1280 | 960 | ISOP193HR9P1F10 (designed binder, not shown: small tags and cut ends) LPAPKNLVVSRVTEDSARLSWTAPDAAFDSFDIYYYELRLGGEAIVLTVPGSERSYDLTGLKPGTEYLVTIYGVKGGYYSGPLSAIFTT |
| 5.78e+06 | 3520 | 880 | ISOP193FR9P1A11 (designed binder, not shown: small tags and cut ends) LPAPKNLVVSRVTEDSARLSWTAPDAAFDSFAIQYWEGWEWGEAIVLTVPGSERSYDLTGLKPGTEYLVTIYGVKGGHWSRPLSAIFTT |
| 1.27e+07 | 5680 | 1520 | ISOP193HR9P1A10 (designed binder, not shown: small tags and cut ends) LPAPKNLVVSRVTEDSARLSWTAPDAAFDSFDIYYLEPWGGGEAIVLTVPGSERSYDLTGLKPGTEYWVTIYGVKVCLGSNPLSAIFTT |
| 1.56e+07 | 1360 | 800 | ISOP193HR9P1G10 (designed binder, not shown: small tags and cut ends) LPAPKNLVVSRVTEDSARLSWTAPDAAFDSFEIYYFELRLGGEAIVLTVPGSERSYDLTGLKPGTEYLVTIYGVKGGDYSPPLSAISTT |
| 1.15e+07 | 8160 | 1200 | ISOP193HR9P1G6 (designed binder, not shown: small tags and cut ends) LPAPKNLVVSRVTEDSARLSWTAPDAAFDSFDIYYYELRLGGEAIVLTVPGSERSYDLTGLKPGTEYLVTIYGVKVCEQSYPLSAISTT |

— patent US20220259289A1 (Janssen / Centocor, published 2022)
